Patent US20250277031A1 (BEIJING HANMI PHARMACEUTICAL, published 2025)

What was measured:
[1] = biological target: T1, rat CD47 on rat red blood cells (rat, UniProt P97829 19-303); assay: flow cytometry on rat RBCs
T1 construct: whole, on cells; also called Rat RBCs
T1 sequence (looked up): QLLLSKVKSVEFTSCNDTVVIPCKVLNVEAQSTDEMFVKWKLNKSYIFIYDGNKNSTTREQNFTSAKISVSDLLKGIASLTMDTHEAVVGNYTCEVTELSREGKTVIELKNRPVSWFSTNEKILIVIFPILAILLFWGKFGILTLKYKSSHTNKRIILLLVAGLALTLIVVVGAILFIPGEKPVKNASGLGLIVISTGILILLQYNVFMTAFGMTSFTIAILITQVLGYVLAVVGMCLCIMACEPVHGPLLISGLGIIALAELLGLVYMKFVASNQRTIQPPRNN
Procedure: (§1) The species specificity of the chimeric anti-human CD47 monoclonal antibodies was determined by flow cytometer FACS. Normal human RBCs internally donated, cynomolgus RBCs, rat RBCs and mouse RBCs were collected, washed once with cold PBS (GIBCO, Catalog number 14190) containing 2% FBS (Hyclone, Catalog number SH30084.03). The RBCs (2×10⁶ cells per tube) were resuspended in 100 μL of cold PBS containing 2% FBS, and the serially diluted anti-human CD47 antibody samples and the control CC-90002 and the isotype control were added therein. Flow tubes were incubated on ice for 30 minutes. The cells were washed twice with PBS containing 2% FBS. Then the pellets were resuspended in 200 μL of cold PBS containing 2% FBS and FITC-labeled anti-human IgG antibody diluted 1:1000 (Beijing Zhongshan Golden Bridge, Catalog number ZF0306), incubated on ice for 30 minutes in the dark. The cells were washed twice with PBS containing 2% FBS, then resuspended in 500 μL of cold PBS. The cell suspension obtained was detected and analyzed on a flow cytometer (BD, FACS Calibur), and the fluorescence intensities of the RBCs were read.

recombinant human CD47 [2] = biological target: T2, recombinant human CD47 (human, UniProt Q08722 19-139); assay: SPR, Biacore X100, antibody captured on Protein A chip, CD47 as analyte
T2 construct: also called antigen CD47
Source text: Biacore X100 instrument (purchased from GE) was used to detect the kinetic constant of the chimeric anti-human CD47 monoclonal antibodies binding to its antigen human CD47. This instrument utilizes optical surface plasmon resonance technology to detect the association and dissociation between the molecules coated on the biochip and the molecules to be tested. The main reagent used is Protein A chip (GE Healthcare, 29-1275-57). The experimental procedure is briefly described as follows: the chimeric anti-human CD47 antibodies were diluted in running buffer (1×HBS-EP+10 mM HEPES, 150 mM NaCl, 3 mM EDTA, 0.05% surfactant P20, pH7.4). During the capture-binding phase, the antibodies at a concentration of 2 μg/mL were injected for 60 seconds at a speed of 10 μL/min. During the binding phase, the antigen CD47 was diluted into multiple concentrations with running buffer, injected for 120 seconds at a speed of 30 μL/min respectively. During the dissociation phase, running buffer was injected for 600 seconds at a speed of 10 μL/min. The regeneration condition is 10 mM glycinate solution, pH1.5. Association kinetic constants and dissociation kinetic constants were analyzed and calculated by Biacore X100 evaluation software. The association kinetic constants, dissociation kinetic constants and dissociation equilibrium constants of the chimeric anti-human CD47 antibodies were shown in Table 7.

recombinant rat CD47 = biological target: T3, recombinant rat CD47 (rat, UniProt P97829 19-140, limits assumed); assay: ELISA, plate coated with 1 µg/mL recombinant rat CD47, anti-human IgG-HRP, OD450
T3 sequence (looked up): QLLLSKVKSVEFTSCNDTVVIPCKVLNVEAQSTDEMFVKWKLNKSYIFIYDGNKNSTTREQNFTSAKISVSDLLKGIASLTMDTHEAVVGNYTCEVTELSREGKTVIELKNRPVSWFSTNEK
Procedure: (§2) Species specificity of the chimeric anti-human CD47 mAbs was determined by ELISA. A 96-well high-adsorption ELISA plate was coated with 1 μg/mL of the recombinant human CD47, cynomolgus CD47, rat CD47 and mouse CD47, at 100 μL per well using carbonate buffer solution, pH=9.6 at 4° C. overnight. The plate was washed 5 times with PBST, and then blocked using PBST with 1% BSA, 300 μL/well, and incubated at 25° C. for 1 hour, and then washed 5 times with PBST. The chimeric anti-human CD47 antibody samples serially diluted in PBST with 1% BSA were added, 100 μL/well, incubated at 25° C. for 1 hour, and then washed 5 times with PBST. The horseradish peroxidase-labeled anti-human IgG antibody (Chemicon, catalog number AP309P) diluted 1:10000 in PBST with 1% BSA was then added, 100 μL per well, and incubated at 25° C. for 1 hour. The plate was washed 5 times with PBST. The colorimetric substrate TMB was added, 100 μL/well, and developed at room temperature for 10 minutes. 1M H₂SO₄ was added, 100 μL/well, to stop the development. The absorbance at 450 nm was read on a microplate reader.

[3] = biological target: T4, mouse CD47 on mouse red blood cells (mouse, UniProt Q61735 19-303); assay: flow cytometry on mouse RBCs
T4 construct: whole, on cells; also called Mouse RBCs
T4 sequence (looked up): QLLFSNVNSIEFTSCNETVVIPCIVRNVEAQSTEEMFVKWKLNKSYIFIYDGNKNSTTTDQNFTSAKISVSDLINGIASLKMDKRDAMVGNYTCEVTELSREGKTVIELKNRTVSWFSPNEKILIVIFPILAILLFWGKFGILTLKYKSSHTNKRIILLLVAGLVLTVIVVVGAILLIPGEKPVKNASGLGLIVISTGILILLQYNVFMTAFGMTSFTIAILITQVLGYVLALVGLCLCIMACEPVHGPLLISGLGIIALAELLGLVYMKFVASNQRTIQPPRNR
Procedure: as §1

recombinant human CD47 [4] = biological target: T2, recombinant human CD47; assay: ELISA, plate coated with 1 µg/mL recombinant human CD47, anti-human IgG-HRP, OD450
Procedure: as §2

T2 sequence (Q08722 19-139 limits assumed): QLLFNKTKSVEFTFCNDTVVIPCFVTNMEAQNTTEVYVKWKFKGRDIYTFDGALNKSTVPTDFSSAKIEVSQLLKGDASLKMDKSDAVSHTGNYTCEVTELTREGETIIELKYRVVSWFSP

B1: chimeric anti-human CD47 monoclonal antibody mAb-18-5 (antibody, human IgG1, kappa)
heavy: not shown
light: DIVMTQSQKFMSTSVGDRVSITCKASQNVRTSIAWYQQKSGQSPKTLIYLASNRHTGVPDRFTGSGSGTDFTLTISNVQSEDLADYFCLQHWNYPFTFGSGTKLEIKRTVAAPSVFIFPPSDEQLKSGTASVVCLLNNFYPREAKVQWKVDNALQSGNSQESVTEQDSKDSTYSLSSTLTLSKADYEKHKVYACEVTHQGLSSPVTKSFNRGEC
[1]
  binding result: no binding
Recombinant human CD47 [2]
  Kd: 0.693 nM
  koff: 0.000823 s⁻¹
  kon: 1.19e+06 M⁻¹ s⁻¹
Recombinant rat CD47
  binding result: no binding (tested: about 20 nM)
[3]
  binding result: no binding
Recombinant human CD47 [4]
  EC50: 0.086 nM
